{
  "source": "paper PMC11148769",
  "about": "(Cell Reports Medicine, 2024)",
  "binders": {"B1": {"name": "XBB-4 Fab (Fab, V domains shown)", "VH": "EVQLVQSGGGLVKPGGSLRLSCAASGFSFTNAWMNWVRQAPGKGLEWVGRIKSKADGGTTDYAAPVKGKFTISRDDSKNTLYLQMNSLKTEDTAIYYCTSDVYDFSTGFGQRDDFDYWGQGTLVTVSS", "VL": "DIVMTQSPSSLSASVGDRVTITCRASQSISYFLNWYQQKPGKAPKLLISAASSLQSGVPSRFSGSGSGTDFTLTISSLQPEDFATYYCQQSYSSLITFGGGTKVEIK"}},
  "target": "T1, BA.2.12.1 S trimer (SARS-CoV-2, Omicron BA.2.12.1, strain)",
  "T1 construct": "also called BA.2.12.1 spike",
  "assay": "cryo-EM structure",
  "details": "both partners purified",
  "data": [
    {"binder": "B1", "values": [
      {"measurement": "stoichiometry N", "result": 3, "unit": "Fabs per S trimer"}
    ]}
  ]
}
